Results on eleven molecules are retold here after US8257698B2, “Protein engineering of monoacylglycerol lipase (MGLL)” (Janssen Pharmaceutica N.V., priority 2008, dated 2012).

The subject of this series is MGLL. In words: Kinetic analysis: hydrolysis of 4-methyl coumarin butyrate (4MC-B) by MGLL constructs. It is filed as biochemical, human. As to conditions: substrate 4MC-B; 4-5 nM MGLL, 20 mM Pipes pH 7, 150 mM NaCl, 37° C.; average of 2 or 4 separate assays. The source says:
A small fluorescent substrate, 4-methyl coumarin butyrate (4MC-B) was used to compare the activity of the engineered mutants to the activity of wt-MGLL (hMGLL 1-303) (SEQ ID NO: 3). The catalytic efficiency (kcat/KM) for the hydrolysis of the 4MC-B was similar for wt-MGLL (hMGLL 1-303) (SEQ ID NO: 3) and all MGLL mutants tested (Table 2). A larger more aliphatic fluorescent substrate, Coumarin Arachidonate (C-A), structurally more closely related to the MGLL natural substrate, 2-AG, was used to compare the activity of wt-MGLL (hMGLL 1-303) (SEQ ID NO: 3) to TEV cleaved mut-MGLL (hMGLL 1-303 L169S, L176S) (SEQ ID NO: 5).
The Michaelis-Menten parameters for the hydrolysis of 4-methylcoumarin butyrate (4MC-B) and coumarin arachidonate (C-A) substrate were determined using 4-5 nM of MGLL in 20 mM Pipes pH 7 and 150 mM NaCl at 37° C. The change in fluorescence due to substrate hydrolysis was monitored using excitation/emission wavelengths of 335/440 in a Safire II instrument from Tecan. The hyperbolic rates versus substrate concentration curves for the hydrolysis of 4MC-B were fit to the Michaelis-Menten equation using Excel.

B1: mut-MGLL 9-297, L169S, L176S: engineered form of human MGLL, cap mutations plus truncation (protein, UniProt Q99685 9-297, looked up, variant L169S L176S)
chain: RTPQSIPYQDLPHLVNADGQYLFCRYWKPTGTPKALIFVSHGAGEHSGRYEELARMLMGLDLLVFAHDHVGHGQSEGERMVVSDFHVFVRDVLQHVDSMQKDYPGLPVFLLGHSMGGAIAILTAAERPGHFAGMVLISPLVLANPESATTFKVLAAKVLNSVLPNLSSGPIDSSVLSRNKTEVDIYNSDPLICRAGLKVCFGIQLLNAVSRVERALPKLTVPFLLLQGSADRLCDSKGAYLLMELAKSQDKTLKIYEGAYHVLHKELPEVTNSVFHEINMWVSQRTATA
As usually defined, the Km is the substrate concentration at which the rate is half of its maximum. B1: the Kcat worked out at 0.433 s⁻¹ and the Km worked out at 126 µM.

B2: mut-MGLL 9-303, L169S, L176S: engineered form of human MGLL, cap mutations plus truncation (protein, UniProt Q99685 9-303, looked up, variant L169S L176S)
chain: RTPQSIPYQDLPHLVNADGQYLFCRYWKPTGTPKALIFVSHGAGEHSGRYEELARMLMGLDLLVFAHDHVGHGQSEGERMVVSDFHVFVRDVLQHVDSMQKDYPGLPVFLLGHSMGGAIAILTAAERPGHFAGMVLISPLVLANPESATTFKVLAAKVLNSVLPNLSSGPIDSSVLSRNKTEVDIYNSDPLICRAGLKVCFGIQLLNAVSRVERALPKLTVPFLLLQGSADRLCDSKGAYLLMELAKSQDKTLKIYEGAYHVLHKELPEVTNSVFHEINMWVSQRTATAGTASPP
In the case of B2, the Kcat is 0.45 s⁻¹ and the Michaelis constant (Km) turned out to be 88 µM.

B3: mut-MGLL 1-303, L171Q: engineered form of human MGLL, cap mutation (protein)
chain: MVDHHHHHHENLYFQGMPEESSPRRTPQSIPYQDLPHLVNADGQYLFCRYWKPTGTPKALIFVSHGAGEHSGRYEELARMLMGLDLLVFAHDHVGHGQSEGERMVVSDFHVFVRDVLQHVDSMQKDYPGLPVFLLGHSMGGAIAILTAAERPGHFAGMVLISPLVLANPESATTFKVLAAKVLNLVQPNLSLGPIDSSVLSRNKTEVDIYNSDPLICRAGLKVCFGIQLLNAVSRVERALPKLTVPFLLLQGSADRLCDSKGAYLLMELAKSQDKTLKIYEGAYHVLHKELPEVTNSVFHEINMWVSQRTATAGTASPP
Turning to B3, the Kcat was determined as 0.85 s⁻¹ and the Km stood at 105 µM.

B4: mut-MGLL. 1-303, L167Q, L174Q: engineered form of human MGLL, cap mutations (protein)
chain: MVDHHHHHHENLYFQGMPEESSPRRTPQSIPYQDLPHLVNADGQYLFCRYWKPTGTPKALIFVSHGAGEHSGRYEELARMLMGLDLLVFAHDHVGHGQSEGERMVVSDFHVFVRDVLQHVDSMQKDYPGLPVFLLGHSMGGAIAILTAAERPGHFAGMVLISPLVLANPESATTFKVLAAKVQNLVLPNQSLGPIDSSVLSRNKTEVDIYNSDPLICRAGLKVCFGIQLLNAVSRVERALPKLTVPFLLLQGSADRLCDSKGAYLLMELAKSQDKTLKIYEGAYHVLHKELPEVTNSVFHEINMWVSQRTATAGTASPP
As for B4, the Kcat was determined as 1.17 s⁻¹ and the Km is 84 µM.

B5: mut-MGLL. 1-303, L169S, L176S, K165A: engineered form of human MGLL, cap plus surface mutations (protein)
chain: MVDHHHHHHENLYFQGMPEESSPRRTPQSIPYQDLPHLVNADGQYLFCRYWKPTGTPKALIFVSHGAGEHSGRYEELARMLMGLDLLVFAHDHVGHGQSEGERMVVSDFHVFVRDVLQHVDSMQKDYPGLPVFLLGHSMGGAIAILTAAERPGHFAGMVLISPLVLANPESATTFKVLAAAVLNSVLPNLSSGPIDSSVLSRNKTEVDIYNSDPLICRAGLKVCFGIQLLNAVSRVERALPKLTVPFLLLQGSADRLCDSKGAYLLMELAKSQDKTLKIYEGAYHVLHKELPEVTNSVFHEINMWVSQRTATAGTASPP
In the case of B5, the Kcat was found to be 0.45 s⁻¹ and the Km came out at 137 µM.

B6: mut-MGLL 1-303, L171Q, L174Q: engineered form of human MGLL, cap mutations (protein)
chain: MVDHHHHHHENLYFQGMPEESSPRRTPQSIPYQDLPHLVNADGQYLFCRYWKPTGTPKALIFVSHGAGEHSGRYEELARMLMGLDLLVFAHDHVGHGQSEGERMVVSDFHVFVRDVLQHVDSMQKDYPGLPVFLLGHSMGGAIAILTAAERPGHFAGMVLISPLVLANPESATTFKVLAAKVLNLVQPNQSLGPIDSSVLSRNKTEVDIYNSDPLICRAGLKVCFGIQLLNAVSRVERALPKLTVPFLLLQGSADRLCDSKGAYLLMELAKSQDKTLKIYEGAYHVLHKELPEVTNSVFHEINMWVSQRTATAGTASPP
B6: the Kcat was determined as 0.783 s⁻¹ and the Michaelis constant (Km) was 89 µM.

B7: mut-MGLL. 1-303, L169S, L176S, K160A: engineered form of human MGLL, cap plus surface mutations (protein)
chain: MVDHHHHHHENLYFQGMPEESSPRRTPQSIPYQDLPHLVNADGQYLFCRYWKPTGTPKALIFVSHGAGEHSGRYEELARMLMGLDLLVFAHDHVGHGQSEGERMVVSDFHVFVRDVLQHVDSMQKDYPGLPVFLLGHSMGGAIAILTAAERPGHFAGMVLISPLVLANPESATTFAVLAAKVLNSVLPNLSSGPIDSSVLSRNKTEVDIYNSDPLICRAGLKVCFGIQLLNAVSRVERALPKLTVPFLLLQGSADRLCDSKGAYLLMELAKSQDKTLKIYEGAYHVLHKELPEVTNSVFHEINMWVSQRTATAGTASPP
Regarding B7, the Kcat came out at 0.5 s⁻¹ and the Km was determined as 90 µM.

B8: mut-MGLL 1-303, L169S, L176S, K36A: engineered human MGLL 1-303 L169S, L176S, K36A; SEQ ID NO: 6, SEQ ID NO: 7 after TEV cleavage (protein)
chain: MVDHHHHHHENLYFQGMPEESSPRRTPQSIPYQDLPHLVNADGQYLFCRYWAPTGTPKALIFVSHGAGEHSGRYEELARMLMGLDLLVFAHDHVGHGQSEGERMVVSDFHVFVRDVLQHVDSMQKDYPGLPVFLLGHSMGGAIAILTAAERPGHFAGMVLISPLVLANPESATTFKVLAAKVLNSVLPNLSSGPIDSSVLSRNKTEVDIYNSDPLICRAGLKVCFGIQLLNAVSRVERALPKLTVPFLLLQGSADRLCDSKGAYLLMELAKSQDKTLKIYEGAYHVLHKELPEVTNSVFHEINMWVSQRTATAGTASPP
modifications: His tag and TEV site; SEQ ID 7 after TEV cleavage; Human
B8: the Kcat was 0.85 s⁻¹ and the Km is 124 µM.

B9: mut-MGLL 1-303, L167Q, L171Q: engineered form of human MGLL, cap mutations (protein)
chain: MVDHHHHHHENLYFQGMPEESSPRRTPQSIPYQDLPHLVNADGQYLFCRYWKPTGTPKALIFVSHGAGEHSGRYEELARMLMGLDLLVFAHDHVGHGQSEGERMVVSDFHVFVRDVLQHVDSMQKDYPGLPVFLLGHSMGGAIAILTAAERPGHFAGMVLISPLVLANPESATTFKVLAAKVQNLVQPNLSLGPIDSSVLSRNKTEVDIYNSDPLICRAGLKVCFGIQLLNAVSRVERALPKLTVPFLLLQGSADRLCDSKGAYLLMELAKSQDKTLKIYEGAYHVLHKELPEVTNSVFHEINMWVSQRTATAGTASPP
On to B9, for which the Kcat amounted to 0.983 s⁻¹ and the Km is 84 µM.

B10: mut-MGLL 1-303, L169S, L176S, K226A: engineered form of human MGLL, cap plus surface mutations (protein)
chain: MVDHHHHHHENLYFQGMPEESSPRRTPQSIPYQDLPHLVNADGQYLFCRYWKPTGTPKALIFVSHGAGEHSGRYEELARMLMGLDLLVFAHDHVGHGQSEGERMVVSDFHVFVRDVLQHVDSMQKDYPGLPVFLLGHSMGGAIAILTAAERPGHFAGMVLISPLVLANPESATTFKVLAAKVLNSVLPNLSSGPIDSSVLSRNKTEVDIYNSDPLICRAGLKVCFGIQLLNAVSRVERALPALTVPFLLLQGSADRLCDSKGAYLLMELAKSQDKTLKIYEGAYHVLHKELPEVTNSVFHEINMWVSQRTATAGTASPP
Consider B10, for which the Kcat is 0.633 s⁻¹ and the Km amounted to 110 µM.

B11: mut-MGLL 1-303, L169S, L176S, K36A, K226A: engineered form of human MGLL, cap plus surface mutations (protein)
chain: MVDHHHHHHENLYFQGMPEESSPRRTPQSIPYQDLPHLVNADGQYLFCRYWAPTGTPKALIFVSHGAGEHSGRYEELARMLMGLDLLVFAHDHVGHGQSEGERMVVSDFHVFVRDVLQHVDSMQKDYPGLPVFLLGHSMGGAIAILTAAERPGHFAGMVLISPLVLANPESATTFKVLAAKVLNSVLPNLSSGPIDSSVLSRNKTEVDIYNSDPLICRAGLKVCFGIQLLNAVSRVERALPALTVPFLLLQGSADRLCDSKGAYLLMELAKSQDKTLKIYEGAYHVLHKELPEVTNSVFHEINMWVSQRTATAGTASPP
For B11, the Kcat was determined as 0.5 s⁻¹ and the Km came to 123 µM.
